B1: cathepsin V (CTSV): N221Q (protein)
parent chain: MNLSLVLAAFCLGIASAVPKFDQNLDTKWYQWKATHRRLYGANEEGWRRAVWEKNMKMIELHNGEYSQGKHGFTMAMNAFGDMTNEEFRQMMGCFRNQKFRKGKVFREPLFLDLPKSVDWRKKGYVTPVKNQKQCGSCWAFSATGALEGQMFRKTGKLVSLSEQNLVDCSRPQGNQGCNGGFMARAFQYVKENGGLDSEESYPYVAVDEICKYRPENSVANDTGFTVVAPGKEKALMKAVATVGPISVAMDAGHSSFQFYKSGIYFEPDCSSKNLDHGVLVVGYGFEGANSNNSKYWLVKNSWGPEWGSNGYVKIAKDKNNHCGIATAASYPNV
B2: cathepsin V (CTSV): 2NQ (protein)
parent chain: B1 parent chain
B3: cathepsin V (CTSV): N292Q (protein)
parent chain: B1 parent chain

A short description of this series: Western blot of supernatant and whole cell lysate, A549. To be noted: glycan lost; control: wild type CTSV.
As for B1, the expression_or_secretion entry was “decreases”.

Turning to B2, the expression_or_secretion result is given as “decreases”.

Turning to B3, the expression_or_secretion entry is recorded as “decreases”.

(Values after publication PMC9043764.)
